Consider 2 molecules from paper PMC9864931 (Vaccines, 2022).

The target of test [1] is E. coli-produced Wuhan-Hu1 RBD (receptor binding domain of the SARS-CoV-2 spike protein, a.a. 319-542) (SARS-CoV-2 (Wuhan-Hu1), UniProt P0DTC2). The test is described as follows: BLI. As to conditions: both partners purified.
Test [2] concerns the target mammalian cell-expressed Wuhan-Hu1 RBD reference standard (SARS-CoV-2 (Wuhan-Hu1), UniProt P0DTC2). Briefly: BLI. The note with it: both partners purified.

B1: mAb WRAIR-2125 (antibody, V domains shown)
VH: EVQLVESGGGVVQPGRSLRLSCAASGFTFSSYGMHWVRQAPGKGLEWVAVISYDGSNKYYADSVKGRFTISRDNSKNTLSLQMNSLRPEDTAVYYCAKDSPYYYDSSGYYPGYFQDWGQGSLVTVSS
VL: DIQMTQSPSSLSASIGDRVTITCRASQTISDYLNWYQQKPGKAPNLLIYAASTLQSGVPSRFSGSGSGTDFTLTISSLQPEDFATYYCQQSYITPRTFGQGTKVEIK
Turning to B1, the binding result in test [1] and in test [2] was “binds” throughout.

B2: mAb WRAIR-2173 (antibody, V domains shown)
VH: QVQLQESGPGLVKPSETLSLTCSVSGDSISSSDYSWGWIRQPPGKGLEWIGTIYYIKNTYYNPSLRSRVTLSVDTSKNLFSLKLSSVTAADTAVYYCARERPPFDVVVVPAARPYNWFDPWGLGTLVIVSS
VL: QSVLMQPPSVSGAPGQRVTISCTGSSSNIGAGYDVHWYQQLPGTAPKLLIYGNNNRPSGVPDRFSGSKSGTSASLAITGLQADDEADYYCQSYDSSLSGSKVFGGGTKLTVL
On to B2, for which the binding result in test [1] is listed as “binds”.
